From publication PMC5785977, “A dual role for the N-terminal domain of the IL-3 receptor in cell signalling” (Nature Communications, 2018)
Positions count from the first letter of the chain named. Names may count otherwise. Where two headings read alike, the source gives them in different places.

Assays:
GMRα:βc (Homo sapiens) = GMRα:βc (Homo sapiens) (UniProt P15509); conditions: cited from earlier work
IL5Rα:βc (Homo sapiens) = IL5Rα:βc (Homo sapiens) (UniProt Q01344); conditions: cited from earlier work
Sequence of IL5Rα:βc (Homo sapiens) (Q01344 21-342): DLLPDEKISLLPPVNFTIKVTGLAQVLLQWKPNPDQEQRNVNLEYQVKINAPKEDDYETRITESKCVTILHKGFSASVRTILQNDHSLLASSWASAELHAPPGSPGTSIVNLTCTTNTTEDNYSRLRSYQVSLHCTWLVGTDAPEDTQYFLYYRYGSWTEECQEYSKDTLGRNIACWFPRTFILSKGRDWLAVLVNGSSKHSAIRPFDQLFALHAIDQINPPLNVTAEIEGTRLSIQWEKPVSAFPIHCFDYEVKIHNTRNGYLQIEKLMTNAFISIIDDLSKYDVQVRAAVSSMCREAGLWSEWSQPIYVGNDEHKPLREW

IL3Rα ECD (Homo sapiens) [1] = biological target: IL3Rα ECD (Homo sapiens) (UniProt P26951); experiment: SPR; conditions: cited from earlier work
IL3Rα ECD (Homo sapiens) [2] = biological target: IL3Rα ECD (Homo sapiens) (UniProt P26951); experiment: SPR; conditions: cited from earlier work; remark: listed apart in the source
IL3Rα ECD (Homo sapiens) [3] = biological target: IL3Rα ECD (Homo sapiens) (UniProt P26951); experiment: SPR; conditions: cited from earlier work; remark: listed apart in the source
IL3Rα ECD (Homo sapiens) [4] = biological target: IL3Rα ECD (Homo sapiens) (UniProt P26951); experiment: SPR; conditions: cited from earlier work; remark: listed apart in the source
IL3Rα:βc (Homo sapiens) = IL3Rα:βc (Homo sapiens) (UniProt P26951); conditions: cited from earlier work
IL3Rα ECD (Homo sapiens) [5] = biological target: IL3Rα ECD (Homo sapiens) (UniProt P26951); experiment: SPR; conditions: cited from earlier work; remark: listed apart in the source
IL3Rα ECD (Homo sapiens) [6] = biological target: IL3Rα ECD (Homo sapiens) (UniProt P26951); conditions: cited from earlier work
[7] = biological target: T1, endogenous IL-3 receptor on TF-1 cells (human (endogenous in TF-1), UniProt P26951 19-378; P32927 17-897); experiment: radioligand binding; saturation binding of radioiodinated (125I) cytokine to TF-1 cells (endogenous receptor); dissociation constants by EBDA and LIGAND; conditions: one partner purified
T1 construct: IL-3 receptor α-subunit, endogenous in the human TF-1 erythroleukaemic cell line; beta common (βc) receptor subunit, endogenous in the human TF-1 cell line; the discussion notes that TF-1 cells also express transcripts of the IL3Rα SP2 splice variant; also called TF-1 Endogenous; source: endogenous, on TF-1 cells

[8] = biological target: IL3Rα C76A,C195A + βc co-expressed on COS cells (human) (UniProt P26951); experiment: radioligand binding; saturation binding of radioiodinated (125I) cytokine to transfected COS cells; dissociation constants by EBDA and LIGAND
[9] = biological target: IL3Rα D197L + βc co-expressed on COS cells (human) (UniProt P26951); experiment: as above
[10] = biological target: IL3Rα + βc co-expressed on COS cells (human) (UniProt P26951); experiment: as above
[11] = biological target: IL3Rα SP2 + βc co-expressed on COS cells (human) (UniProt P32927); experiment: as above
[12] = biological target: full-length IL3Rα expressed alone on COS cells (human) (UniProt P26951); experiment: as above
[13] = biological target: IL3Rα C76A,C195A + βc co-expressed on COS cells (human) (UniProt P26951)
[14] = biological target: IL3Rα D197L + βc co-expressed on COS cells (human) (UniProt P26951)
[15] = biological target: IL3Rα + βc co-expressed on COS cells (human) (UniProt P26951)
[16] = biological target: IL3Rα SP2 + βc co-expressed on COS cells (human) (UniProt P32927)
[17] = biological target: IL-3 receptor on TF-1Hi cells (overexpressed IL3Rα) (human | human (endogenous in TF-1)) (UniProt P26951); experiment: radioligand binding; saturation binding of radioiodinated (125I) cytokine to TF-1Hi cells (overexpressed IL3Rα); dissociation constants by EBDA and LIGAND
[18] = biological target: T2, IL3Rα + βc co-expressed on CTLL-2 cells (human, UniProt P26951 19-378; P32927 17-897, N144 and R145 to K144); experiment: radioligand binding; saturation binding of radioiodinated (125I) cytokine to the CTLL-2 cell line expressing IL3Rα and βc; dissociation constants by EBDA and LIGAND; conditions: one partner purified
T2 construct: IL-3 receptor α-subunit, human, full-length; the cDNA of the site 1 functional studies in CTLL-2 encodes a splice variant that changes N144 and R145 to K144; beta common (βc) receptor subunit, human, wild-type; also called CTLL-2 IL3Rα + βc; source: CTLL-2 cells, retrovirally transduced, on cells
T2 sequence (looked up) 1: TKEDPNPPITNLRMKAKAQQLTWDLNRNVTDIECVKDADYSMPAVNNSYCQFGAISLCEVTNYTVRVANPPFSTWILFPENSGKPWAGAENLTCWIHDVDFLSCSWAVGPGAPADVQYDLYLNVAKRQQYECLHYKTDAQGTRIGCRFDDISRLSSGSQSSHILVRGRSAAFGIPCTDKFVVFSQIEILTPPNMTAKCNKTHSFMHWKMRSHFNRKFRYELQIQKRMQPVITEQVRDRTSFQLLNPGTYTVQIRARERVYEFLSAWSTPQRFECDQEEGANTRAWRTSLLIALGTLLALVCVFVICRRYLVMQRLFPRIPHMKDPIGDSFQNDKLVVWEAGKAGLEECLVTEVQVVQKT
T2 sequence (looked up) 2: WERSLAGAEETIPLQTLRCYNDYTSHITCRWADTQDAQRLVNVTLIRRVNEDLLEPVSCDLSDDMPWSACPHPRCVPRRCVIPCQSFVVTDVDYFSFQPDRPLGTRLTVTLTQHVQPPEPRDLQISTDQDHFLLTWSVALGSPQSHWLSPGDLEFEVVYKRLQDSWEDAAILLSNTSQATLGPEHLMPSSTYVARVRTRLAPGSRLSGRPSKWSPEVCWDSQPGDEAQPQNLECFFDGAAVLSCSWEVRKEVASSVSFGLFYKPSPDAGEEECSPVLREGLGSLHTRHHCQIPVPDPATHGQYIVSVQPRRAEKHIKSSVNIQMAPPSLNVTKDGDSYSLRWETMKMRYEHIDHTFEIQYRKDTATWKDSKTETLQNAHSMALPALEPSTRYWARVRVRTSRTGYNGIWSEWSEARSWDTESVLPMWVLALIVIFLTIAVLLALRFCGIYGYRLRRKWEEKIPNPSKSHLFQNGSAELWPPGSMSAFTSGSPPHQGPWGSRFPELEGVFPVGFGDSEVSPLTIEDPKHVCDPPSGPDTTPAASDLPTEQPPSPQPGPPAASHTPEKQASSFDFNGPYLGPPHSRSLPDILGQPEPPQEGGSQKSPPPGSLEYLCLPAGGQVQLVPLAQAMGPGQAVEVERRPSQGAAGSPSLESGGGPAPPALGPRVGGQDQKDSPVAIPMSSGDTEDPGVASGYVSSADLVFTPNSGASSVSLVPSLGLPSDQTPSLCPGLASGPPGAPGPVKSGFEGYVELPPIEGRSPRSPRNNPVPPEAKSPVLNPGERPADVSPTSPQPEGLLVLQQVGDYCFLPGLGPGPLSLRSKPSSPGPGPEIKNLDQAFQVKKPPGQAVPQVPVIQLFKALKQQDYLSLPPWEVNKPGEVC

Sequence of GMRα:βc (Homo sapiens) (P15509 23-320): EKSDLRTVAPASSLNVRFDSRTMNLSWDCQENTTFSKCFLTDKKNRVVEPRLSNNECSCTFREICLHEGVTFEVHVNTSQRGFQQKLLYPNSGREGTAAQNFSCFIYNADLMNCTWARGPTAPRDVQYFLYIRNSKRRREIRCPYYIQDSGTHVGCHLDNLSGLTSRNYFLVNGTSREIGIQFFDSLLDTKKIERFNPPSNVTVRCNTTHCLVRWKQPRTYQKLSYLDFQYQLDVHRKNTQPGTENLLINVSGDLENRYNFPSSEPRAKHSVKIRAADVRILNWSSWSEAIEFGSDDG

Molecule: GM-CSF (from UniProt P04141)
- Kd (GMRα:βc (Homo sapiens)): 0.2 nM

Molecule: IL-5 (from UniProt P05113)
- Kd (IL5Rα:βc (Homo sapiens)): 0.2 nM

Molecule: IL-3 (from UniProt P08700)
- Kd (IL3Rα ECD (Homo sapiens) [1]): > 5000 nM
- Kd (IL3Rα ECD (Homo sapiens) [2]): 220 nM
- Kd (IL3Rα ECD (Homo sapiens) [3]): > 5000 nM
- Kd (IL3Rα ECD (Homo sapiens) [4]): > 5000 nM
- Kd (IL3Rα:βc (Homo sapiens)): 0.2 nM
- Kd (IL3Rα ECD (Homo sapiens) [5]): > 5000 nM
- Kd (IL3Rα ECD (Homo sapiens) [6]): 510 nM

B1: wild-type human IL-3, residues W13 to Q125 of the mature peptide with a W13Y mutation and a GAMGS N-terminal tail (ligand)
chain: GAMGSYVNCSNMIDEIITHLKQPPLPLLDFNNLNGEDQDILMENNLRRPNLEAFNRAVKSLQNASAIESILKNLLPCLPLATAAPTRHPIHIKDGDWNEFRRKLTFYLKTLENAQAQQ
modifications: radioiodinated with 125I in the cell-surface binding assays (residue not stated)
notes: N-terminal tail arising from the expression plasmid, left after TEV cleavage; interleukin-3, human, residues W13 to Q125 of the mature peptide; numbers count on: the mature protein; also called wild-type IL-3; interleukin-3; source: E. coli BL21 CodonPlus (DE3)-RIPL, purified (HisTrap, TEV digest, SEC, reversed-phase); not shown: Nus, N-terminal, cleaved; 6xHis, N-terminal, cleaved
- Kd [7]: 2.06 nM
- Kd [8]: 1.1 nM
- Kd [9]: 4.37 nM
- Kd [10]: 0.48 nM
- Kd [11]: 7.61 nM
- Kd [12]: 141 nM
- proliferation of FDH cells co-expressing βc and IL3Rα C76A,C195A, ED50 of the IL-3 dose–response [13]: 12.2 ng/mL
- proliferation of FDH cells co-expressing βc and IL3Rα D197L, ED50 of the IL-3 dose–response [14]: 1.71 ng/mL
- proliferation of FDH cells co-expressing βc and wild-type IL3Rα, ED50 of the IL-3 dose–response [15]: 0.29 ng/mL
- proliferation of FDH cells co-expressing βc and IL3Rα SP2, ED50 of the IL-3 dose–response [16]: 6.94 ng/mL
- Kd [17]: 0.14 nM
- Kd [18]: 0.34 nM

B2: human IL-3 K116W, residues W13 to Q125 of the mature peptide with a W13Y mutation and a GAMGS N-terminal tail (ligand)
chain: B1 chain with K109W
modifications: radioiodinated with 125I in the cell-surface binding assays (residue not stated)
notes: N-terminal tail arising from the expression plasmid, left after TEV cleavage; interleukin-3, human, residues W13 to Q125 of the mature peptide; numbers count on: the mature protein; also called IL-3 K116W superkine; IL-3 superkine; source: E. coli BL21 CodonPlus (DE3)-RIPL, purified (HisTrap, TEV digest, SEC, reversed-phase); not shown: Nus, N-terminal, cleaved; 6xHis, N-terminal, cleaved
- Kd [7]: 0.35 nM
- Kd [8]: 0.94 nM
- Kd [9]: 1.6 nM
- Kd [10]: 0.43 nM
- Kd [11]: 2.98 nM
- Kd [12]: 17.8 nM
- proliferation of FDH cells co-expressing βc and IL3Rα C76A,C195A, ED50 of the IL-3 K116W dose–response [13]: 2.51 ng/mL
- proliferation of FDH cells co-expressing βc and IL3Rα D197L, ED50 of the IL-3 K116W dose–response [14]: 0.6 ng/mL
- proliferation of FDH cells co-expressing βc and wild-type IL3Rα, ED50 of the IL-3 K116W dose–response [15]: 0.37 ng/mL
- proliferation of FDH cells co-expressing βc and IL3Rα SP2, ED50 of the IL-3 K116W dose–response [16]: 2.19 ng/mL
- Kd [17]: 0.065 nM
- Kd [18]: 0.14 nM
